The RNAGym collection of RNA variant scans (doi:10.1073/pnas.2313332121)

B1: TPR t1 (parent)
chain: GACCAAUCUGCCCUCAGAGCUCGAGAACAUCUUCGGAUGCAGAGGAGGCAGGCUUCGGUGGCGCGAUAGCGCCAACGUCCUCAACCUCCAAUGCAUCCCACCACAUGAUGAUGCCUGAAGAGCCUUGGUUUUUUG

Variants of: B1
Assay: polymerase ribozyme fitness, log enrichment relative to wild type (log ratio); higher = more active; in vitro selection for triplet polymerase activity
Procedure, shortened: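 Both subunits of a heterodimeric triplet polymerase ribozyme were given their own mutant library, built by PCR and transcribed. Each library was annealed with a biotinylated primer, the partner subunit and triplets, incubated frozen at −7 °C, and its extended constructs gel-excised, captured on streptavidin beads and amplified by RT-PCR, all in one round done in triplicate. Fitness is the logarithm of genotype enrichment relative to wild-type enrichment, with replicates averaged by inverse-variance weighting. That logarithm is base 2, and Illumina-sequenced genotypes needed ≥10 input reads and ≥1 read per output.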

Variant | polymerase ribozyme fitness (log ratio)
G39C C72U U129G | -2.2
C40A A46G U55A C99U G120A | -4.32
A41U A43C C79U C80U C124U | -4.76
C40U G60U U131G | -0.956
G39U G63A A100U G120U | -2.94
A41G G44A C62A U131G | -3.51
A41C C72A U92G G120U U129C | -2.57
A41U C53A C114G | -1.85
A41C C80A G107A G117U U129C | -7.66
C40U A121U | 1.68
G39U A41G G45A A119G U132G G135U | -2.12
A41C C80G A121G U132A | -4.51
C40U G61C C88A | -2.87
G39U G42C C94U U106A U112A | -0.723
G39U G57A C80A | -2.91
G39C A43U A90G C114U U125A | -2.64
C40A C56G | -2.58
C40U A41U G60A | -2.3
A41C G117C A121C | -6.19
G39U C49A G71U G127A | -2.56
C40U G107C U109A | -6.59

Variant | polymerase ribozyme fitness (log ratio)
C40U G48C | -1.59
C40U G42A C56A C76G G93U C114G | -4.34
G39A G42A A46G G58A | -2.47
A41G C56A C102U | -3.9
G39U U55A G71A C94G C102A G113U | -5.82
C40A U129G U131A G135C | -4.21
C40U C49A G61U C82G U131G | -0.822
C40G C82A A83C U87A A121U | -0.502
C40G G69A | -3.43
C40G G69C | -2.54
C40U C53U | -0.572
G39C A43G C124U | -0.831
G39C A66U A75G C88G C123U | -3.46
G39U C76U C79G | -1.98
C40A A50U C88U U96C G120U | -4.53
A41C G69U | -0.161
A41C G93A U112A | -1.27
C40A U131A | -1.11
C40U U109A G120C | -5.74
G39U C73U G77A | -1.39
A41G G57A G77U C123A G128C | -2.56

Variant | polymerase ribozyme fitness (log ratio)
C40A A111C | -1.49
A41G G48U C62A C80U A91U C98U C123A | -7.74
C40U A119G U126G G127U | -0.212
C40U G57C A90C A103U U112G | -6.33
G39C C53A U54G G120U | 0.139
A41U A111G | -1.26
C40U A50G | -0.548
C40U A50U | -4.47
G39U C64U A84C G122A C124A | 0.97
A41C U106G C114U U130A | -4.41
C40A G69C U130C | -2.11
C40G G52A U78A C101A G120U | -2
A41C G61C G93C | -4.23
A41G A66G | -1.87
C40G G44U C85U | -5.09
C40G C53A C70U C115G U125A | -3.58
A41C A91U A95C G113A | -3.38
G39U G120U | -0.816
G39U G58A A121U | 1.6
A41C G113C C124U | -3.22
C40A U92G C123G | -1.39

Variant | polymerase ribozyme fitness (log ratio)
C40A G48A C70U | -2.07
A41C A43C C72G C88A G93U C99A C102A C124A | -7.15
A41G G61U U96A A105U U133C | -6.14
C40U G71U U92A | -5.4
G39U G65A | -6.81
C40U C70U A84G | -2.34
A41U A66C C70U C97U | -5.29
G39U C79U C88A G110A G117U | -6.66
G39U G61U C73U U106A | -1.81
G39U A43G | -1.75
C40U U116G | -2.61
C40A U87G | -1.04
A41C C64A A90G | -4.74
G39U C79U | -0.704
C40G C56U G128C | -3.4
C40A G44U G45A | -3.66
A41G C64A | -7.34
C40A C73U | -1.17
G39A C64U C98G A103C A111G | -7.64
A41G G45U C56G | -0.725
C40U C86G | -1.6
